According to the DeepSol protein solubility set:

Assay: soluble on expression in E. coli; label from the status in PepcDB or PDB records

Sequence	soluble on expression in E. coli
MTWLDEKGRFAIYEAPQNCPYLGTIGTCYEFGSLPVILMFPELEKLFLKLLISYVRNDGYVPHDLGFHSLDSPIDGTTSPPKWKDMNPSLILLVYRYFKFTNDIDFLKEVYPTIVKVMDWELRQCRDGLPFMEGEMDNAFDATIIKGHDSYTSSLFIASLIAMREIAKLVGDSNYVGFINEKLNVAREAFRKMFNGKYFKAWDGVDKASFLAQLYGEWFTTLLELENIVDENMIKSALESIIRLNGNASPYCVPNLVDENGKIVNLSVQTYSSWPRLVFAICWLAYKKGVGDLSFCKKEWDNLVRNGMVWDQPSRINCYTGKPEINYLDHYVGSPSLWSFLFLEHHHHHH	not soluble
MIKQIGTVAVYVEDQQKAKQFWTEKVGFDIAADHPMGPEASWLEVAPKGAETRLVIYPKAMMKGSEQMKASIVFECEDIFGTYEKMKTNGVEFLGEPNQMEWGTFVQFKDEDGNVFLLKE	not soluble
MSVVAAVDCGTNSIRLLISEQTPTGLREITRQMTIIRLGEGVDATGKIDPVAIERARVALSGYVDTMLAHKVTAVRMVATSATRDASNKDDFFAMTADLLGAVVPGACAEVISGAEEAELSFIGAVADIPDTDRPVCVIDLGGGSTEFVVGKKTGEILGAYSTQMGCVRLTERLMVSDPPTAEEIAQAREYVDTQLTVALDNVPIMQASMVVGCAGTFTTVAALALGLDSYDPQRIHGSVHTADRLREETQRLIGETSQQRAAHSVMHLGRADVIAGGSVVIEQILAMMQRLGVSDSVTISEKDILDGIVARLLEELEHHHHHH	soluble
MGSDKIHHHHHHMNFTKIAVSAGCILALCAGCGANDTSSTKEKASSEKSGVTKEITASVNKMETIISKLNDSVEKGDQKEIEKKGKELNSYWLSFENDIRSDYPFEYTEIEKHLQPIYTEAQKDKPDAGKIKTESESLKASLEDLTEAKKSGKKASDQLAKAADEYKGYVKEQSDQLVKATEAFTGAVKSGDIEKSKTLYAKARVYYERIEPIAESLGDLDPKIDARENDVEEGDKWTGFHKLEKAIWKDQDISGEKATADQLLKDVKELDGSIQSLKLTPEQIVAGAMELLNEAGISKITGEEERYSRIDLVDLMANVEGSEAVYQTVKSALVKDHSDLTEKLDTEFSEFEVLMAKYKTNDQSYTSYDKLSEKQIRELSTKLTTLSETMSKIANVL	not soluble
MRDNASLAHTQWNCKYHIVFVPKYRRQVIYGKIKKDIGQILRKLCEMKGVEIIEASLCPDHIHMLVSIPPKISVSSFMGYLKGKSSLMIFDRHANLKYKYGNRHFWCRGYYVDTVGRNRKAIEQYIRRQLQEDIASDQISLNEYIDPFTGERVNKSKK	soluble
MFIYCIPLISQSMIPMALDKTINVMKVTGMFAATYFTGDNRTPFFAFIICLKSFKLENMDQPPKNKSNIFPAVEDSLLLEHHHHHH	not soluble
MALKNVPFRSEVLAWNSDNLADYFRKLNYRDCEKAVKKYHIDGARFLNLTENDIQKFPKLRMPLLSKLSQDINKNEERRSIFTRKPQIPRFLEETESHEEDDGGWSSFEDDYESPNDDDPDGEDDGDYESPNEEEQALVDDAADYEPPPSNNEEALQSSILPPNSFHNTNSMYIDRPPTGKVSQQPPVPPLRPKPALPPLPTGRNHSPLSPPHPNHEEPSRSGNNKTAKLPAPSIDRSTKPPLDRSLAPLDREPFILGKKPPFSDKPSAPLGREHLPKIQKPPLPPAMDRHERNERLGPVTTRKPPVPRHGRGPDRRENDEDDVHQRPLPQPSLPSMSSNTFPSRSVQPSSKNTFPLAHMPGAFSESNIGFQQSASLPPYFSQGPGNRPPLRSEGRNLPLPVPNRPQPPSPGEEETPLDEEWYVSYITRPEAEAALRKINQDGTFLVRDSSKKTANNPYVLMVLYKDKVYNIQIRYQEESQVYLLGTGLRGKEDFLSVSDIIDYFRKMPLLLIDGKNRGSRYQCTLTHAAGCL	soluble
MSLRKGNEIELLVEGIEFPAKGFGFVDGLKVYAKNTFPGQKVFGRVTKKRKEYAEIRVSEVREKASYEEDQKCPHFGVCGGCSSQTIPYEKQLELKVEQVKDLFKEAEVPTGEFLGIETSPIQWEYRNKMEYTFGDEEKGGELTLGMHMKGKSFGIVNVDKCVLVDEDFRNILDTTVKYFREKGLPFYKIMPRTGYLRYLVVRKSVKTEEILVNLVTTTQIDFDLTEFTELIKGLNLKGKLKSIIHTESDALSEAVIPEKVNILYGDDFITENLLGLNFKISPFSFFQTNSLGAEKLYSIVRDFMGAADNKVVFDLYCGTGTIGQIAAGKASKVIGIELIEEAAMAANENAKLNGLNNCNFIAGDVAEVIKTVKDKPDIIILDPPRSGVHPKALDYVIKFNAPQIIYVSCNPKTLVTDLKVLEAKGYEIEKTLLMDMFPNTPHVETVVKLNKKEGHHHHHH	soluble
MGHHHHHHSHMAQLENQILETLKPLIDANTGKSYVAAKNVKNLKCGDAEISLDVVLAYPAKSQFDAVRQQFEAALAPLAEGRAIKIAVSAQIVSHSAQRGVPLLPGVKNVIAVASGKGGVGKSTTAANLALALADEGARVGLLDADIYGPSQPLMMGLQGQRPETADGKLTPLSNHGIQTMSIGYLVDADQAMVWRGPMVSQALQQLLNDTRWDDLDYLVIDMPPGTGDVQLTLSQKVPVTGALIVTTPQDIALLDARKGVTMFQKVGVPILGLVENMAIHVCSNCGHAEHIFGEGGAVKMAQDFGVELLGSLPLDLAIRQAVDEGRPSVAADPSGKPAELYRAIARRVAVKVGEKAQDFSGKFPKIVIQNN	soluble
MENKKNDNQQPTVASAHHPFYLGEMKKGMFACWTVTTQCCDDTKVTILDDTGKVYATYTKAFTQSHNLTLLGQGNAIIEGNELRVYVDSSMSSQLIASTNTHLINDLNARKVGAVTDICIEDQTDNDFNDVYINVVAWNKKG	not soluble
MVKSIVILIETVTMKIPAVYSDGSFKTFNDSETTAQKLVDSGVVNTFAFGPTLVENGKVAVSENEEVGQDMADNPRTAIVVNEESDRSVHYIVIVSDGRTSESSGLTLYEMAELMKSYGVMTGYNLDVGDSSTMYSLEHHHHHH	not soluble
MGSDKIHHHHHHMLLVTSHDIQTALEKGIQYQKLTHLFGTLSLQETENHIILNYLPVDLKTEIGLLRAQCEISGTYKFIQDIYTMMGLKMPDMRIDLPFPKPSDPDTVAQYYAYYGDDLHFNSTHAAFSLSKNVLEIKIPSADIITHRIYEAKCIKEIERLNEQDHQIPPIIQYVQDYLELQQGIIPSMAETAFALKMPERTLRHQLQQLNTSYKQIREQIIKNKALKLMEYKEYSIEVIAEALGYSEPAAFNHAFKRWFGQSPRQYGKEFY	not soluble
MRGENTMTPVFELKNVNYYYDHKKVLENINIKINKGEFLAIVGPNGAGKSTLLKLILGLLPLQSGEIFVEGIDFKNKKTSIKLSYVSQKANAFNSGFPASVKEVVLSGLTKTKRLFQTFNSKDNEKVIKVLERLNISDLIHKNIAELSGGQQQRVMIARALISEPAVLVLDEPTNGIDAKHVSEFYNTLDQLKQEGITIILVTHDIGVVADTATEVACLNKHLHFHGTTDEFKSLDEVEISKIYGHPVRFVDHQHNRECCN	not soluble
GNYPRNVGLSPLSGVDPSEVFDVTPYAVATDKYFIKNATTYHLPRKLKVSYSNCYTDTAHCSIQDLGFVATLKNDEPYFRVFLGGGLGKQPKVALELDELIKPKDALYCVEGMIKFFMDYGNYENKNRARVRYMVESLGEELFLEKFKEYYKLEKENGSLELNI	not soluble
MIVVFDAQCLLCSGFARFLLKHDRRGVLRFASMQGETGRALLRAADVDPEDVDTVLFVRDGRAWRESAAALRILHALGWPWRLAWLGWAVPLPIRDALYRCVARNRYRWFGCSDTCILPPPGAAQRFLDLEHHHHHH	not soluble
MGKTYNVTRIIKLEVRDRIIPPTMKLPEGVVTSIGSNLTITCRVSLRLPTTDADVFWISNGMYYEEEDEDGDGRISVANKIYMTDKRRVITSWLNINPVKEEDATTFTCMAFTIPSISKTVTVSIT	not soluble
MLELKSDDREYTANMLLLNDTDKTVKHKTVGEFYQDLIKQYANESKCGNRLIYKSSYNSLYTFTKGNLDIPFSAINPSWLCNYEKWLRSKGNKETTMSLMLRTLRSTYNKAIENKYARKSDYPFNEYKIGKFDVSTEKRAIAKADIMKLTADISSVGKRQYVQLSKDIFMFSYLCGGINFTDIANLTSKNIVDGKRLHYIRQKTGKLIKLGLSDAALRIIERYAPDSHGYLFPILNVEVHKTALQKQNRIHKILSKVNSNLKLIATQSGLDINLTTYVARHSFATVLKKSGVNIALISEALGHSDLATTQIYLDSFDNEQIDDAMKNLL	not soluble
MQGRVKWFNAEKGFGFIEREDGDDVFVHFSAIQQDGYKSLEEGQQVEFDIVDGARGPQAANVVKL	not soluble
MSLVSSTLKSVSRCRHFRIDGFWLQTVMSDIFSHTALSNLAEFSVSELSGSIKRTVETAFEQVRVRGEISGYRGPHSSGHAYFSLKDDRARIDAVIWKGTFSRLKFRPEEGMEVIATGKITTFPGSSKYQIVIESLEPAGAGALMALLEDRRRRLAAEGLFDSARKRPLPFMPRVIGVVTSPTGAVIRDILHRISDRFPVHVVVWPVKVQGEGSGEEVANAIRGFNALKPGGDIARPDVLIVARGGGSLEDLWSFNDEIVVRAAAESEIPLISAVGHETDTTLIDYAADVRAPTPTGAAEMAVPVRAELEAQLSGLAARLSGSVSRQMDNRRQGVRALVRALPSLDQLLALPRRRFDEAASGLGRGLELTTLNKRRAFERSASGLRPETLLNGLKHHRQRITERMHRAETLVERRLLQGKGRVDSFDSALRSLPARLLGQLERQKERVVTAARRADTAVLHRMAQNRSGLAAHDRILQSLSYKNVLNRGYAVIRDEENRPLTRAAAIASGAAVSMEFADGRVSAITTGEGTPAPETAAAPKKKPAKPASSDPGNQGNLFEGHHHHHH	not soluble
MQRLSPGEFKTLISKERKSHFITPFALVYKTFCDLGYDQKNSDYFLNNPSEYIIAMRKNCWKEFEPFEKEFTTRMLSYLIDEERIKDMSPYDAIRDFTMEYPTHIYDLALSNTQSRRSRAGKEFESILELLMMGAGIPVDVQGAIGKSFFQKNQIGKLVDLVMPGVVQYTSNKRNTMLISAKTTLRERWQEVPEEVNRTGIREMYLATLDDSFSEETINILYEANVVVVTTVENKNFKYKNNNRVLTFEDMLQSAMELSRKWNNVSYTDSEKEEIQQSILKQIEKYSDFPYVVNYYRNRLSALFD	soluble
MGSDKIHHHHHHMPKVLHVADVHLGARPYGLEERRDDIFRSFEFVVETALKDRPDAVLIAGDLFDKPKLPLRDVKQAVELVRALTDAGIPVLAAHGEHDTPSVRDETLLSLMEASLDGFKAPLYRSGMRPGDFVVDLGSLKVAVVPFFKVPLEERRRLTLRFLREFDQISRTSSGTLVLLAHMSLDAEMQFDAVASPSDLPSGAKYAALGHLHAPRIRLDAPTPYAYPGVLDPLKVEEINTPGSPLYVDLSGDAPIIEKVKVPRRPQYRIEVDIGDGGSIYNAVNRGLRRVLANVRASREDWLKPLIHVIIKSDKPISKARVIAEARKAAGGADVLLKIHWKIVAGGEHAGTSPGLQGEGPLDLAKIAAEYYKIPLNAASTILHDLAEAAAEKDELRVREILETLATTVSQDTWKRILYMR	not soluble
MACFLARFQFISPDSPATKAVTLQIKRSGQDMYACITGHSYSAPVFTVECKLKPDAEWVRDCMASFKEQMEAEGFLLNEGTSESTLPAQPAKKADLTLHDISAFFHLPVKAAASCLGVSQTYLKILCRRLGIDRWPYRKVASVKKHM	not soluble
